We go through 76 sequences from the supplement of paper PMC7877785.

This data set is described as follows: self-splicing fitness, log relative to wild type (ln ratio); higher = more splicing; Tetrahymena group I intron in knt gene, E. coli kanamycin selection, DiMSum; sequences stand for … in CUCUCU…GGAGGGAAAAGUUAUCAGGCAUGCACCUGGUAGCUAGUCUUUAAACCAAUAGAUUGCAUCGGUUUAAAAGGCAAGACCGUCAAAUUGCGGGAAAGGGGUCAACAGCCGUUCAGUACCAAGUCUCAGGGGAAACUUUGAGAUGGCCUUGCAAAGGGUAUGGUAAUAAGCUGACGGACAUGGUCCUAACCACGCAGCCAAGUCCUAAGUCAACAGAUCUUCUGUUGAUAUGGAUGCAGUUCACAGACUAAAUGUCGGUCGGGGAAGAUGUAUUCUUCUCAUAAGAUAUAGUCGGACCUCUCCUUAAUGGGAGCUAGCGGAUGAAGUGAUGCAACACUGGAGCCGCUGGGAACUAAUUUGUAUGCGAAAGUAUAUUGAUUAGUUUUGGAGUACUCGUGGUCG
The procedure, abridged:
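Six replicate transformations of E. coli BL21(DE3) with a pET-22b(+) library were grown overnight at 37°C or 30°C. The library randomised all eight P1ex-region intron nucleotides, the intron lying in the knt kanamycin-resistance gene, and plates were LB agar with or without 25 μg/mL kanamycin plus 100 μg/mL carbenicillin, 50 μM IPTG and 0.2% rhamnose. Pooled colonies were amplicon-sequenced on an Illumina HiSeq 2500, and fitness is the DiMSum error-weighted combination of wild-type-normalised replicate fold changes, kanamycin versus none.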

± gives the uncertainty stated by the source.

Consider AACGAGCAAUAUUACGUUAG, for which the “self-splicing fitness (ln)” value is -3.71 ± 0.33 (30 °C) and -3.11 ± 0.3 (37 °C).
UGCAAGCAAUAUUACGAUCC: the “self-splicing fitness (ln)” value is, setting by setting: (30 °C) -1.21 ± 0.14; (37 °C) -0.955 ± 0.2.
As for UGUUAGCAAUAUUACGGUGU, the “self-splicing fitness (ln)” value is -2.57 ± 0.17 (30 °C) and -1.92 ± 0.18 (37 °C).
With AGAUAGCAAUAUUACGGGGG, the “self-splicing fitness (ln)” value reads like this: (30 °C) -3.43 ± 0.28; (37 °C) -2.15 ± 0.29.
Regarding GCUUAGCAAUAUUACGGCAA, the “self-splicing fitness (ln)” value runs as follows: (30 °C) -2.6 ± 0.17; (37 °C) -2.6 ± 0.17.
For the sequence UGGUAGCAAUAUUACGAAUC, the “self-splicing fitness (ln)” value (30 °C) was -2.14 ± 0.32.
In the case of GAAAAGCAAUAUUACGACAA, the “self-splicing fitness (ln)” value (30 °C) is -0.627 ± 0.084 and the “self-splicing fitness (ln)” value (37 °C) is -0.496 ± 0.096.
On the same counts, the results for AUAUAGCAAUAUUACGAAGU are -3.37 ± 0.3 and -1.63 ± 0.36.
On the same counts, the results for GAUGAGCAAUAUUACGCGCU are -1.97 ± 0.23 and -1.88 ± 0.45.
On the same counts, the results for ACUAAGCAAUAUUACGGCAU are -0.539 ± 0.062 and -0.563 ± 0.09.
As for GACUAGCAAUAUUACGAGGA, the “self-splicing fitness (ln)” value reads like this: (30 °C) -2.29 ± 0.17; (37 °C) -1.43 ± 0.14.
On to GGAUAGCAAUAUUACGUACC, for which the “self-splicing fitness (ln)” value by setting is: (30 °C) -2.37 ± 0.26; (37 °C) -0.601 ± 0.25.
Take GCGCAGCAAUAUUACGGGCC: the “self-splicing fitness (ln)” value reads like this: (30 °C) -2.96 ± 0.22; (37 °C) -3.25 ± 0.27.
As to UAAGAGCAAUAUUACGACAU, the “self-splicing fitness (ln)” value runs as follows: (30 °C) -3.866 ± 0.031; (37 °C) -2.82 ± 0.043.
On the same counts, the results for AUGCAGCAAUAUUACGUGAG are -1.36 ± 0.049 and -1.06 ± 0.073.
With UGCAAGCAAUAUUACGAGGA, the “self-splicing fitness (ln)” value is, setting by setting: (30 °C) -3.28 ± 0.26; (37 °C) -0.992 ± 0.14.
The corresponding values for CGUAAGCAAUAUUACGUAUA are -2.48 ± 0.26 and -2.21 ± 0.26.
In the case of UUUAAGCAAUAUUACGUCCG, the “self-splicing fitness (ln)” value was -1.17 ± 0.22 (30 °C) and 0.606 ± 0.21 (37 °C).
On the same counts, the results for GGGAAGCAAUAUUACGAGCU are -0.998 ± 0.29 and -0.3 ± 0.36.
On the same counts, the results for UUUAAGCAAUAUUACGGGCG are -0.49 ± 0.13 and 0.635 ± 0.21.
CAAAAGCAAUAUUACGGAGA: the “self-splicing fitness (ln)” value is -2.88 ± 0.28 (30 °C) and -3.43 ± 0.3 (37 °C).
On the same counts, the results for GUACAGCAAUAUUACGGGUA are -2.08 ± 0.13 and -1.93 ± 0.15.
On the same counts, the results for CAACAGCAAUAUUACGGCCG are 0.255 ± 0.072 and 0.563 ± 0.1.
Consider GACAAGCAAUAUUACGAGAC, for which the “self-splicing fitness (ln)” value (30 °C) was -2.95 ± 0.27 and the “self-splicing fitness (ln)” value (37 °C) is -2.29 ± 0.27.
In the case of AAAAAGCAAUAUUACGGAGA, the “self-splicing fitness (ln)” value reads like this: (30 °C) -3.49 ± 0.19; (37 °C) -3.11 ± 0.18.
The corresponding values for AAACAGCAAUAUUACGGGCG are -2.12 ± 0.09 and -1.41 ± 0.12.
The corresponding values for CUCUAGCAAUAUUACGCGAU are -3.29 ± 0.17 and -2.88 ± 0.19.
For the sequence UGACAGCAAUAUUACGUGUG, the “self-splicing fitness (ln)” value (30 °C) is -0.953 ± 0.06 and the “self-splicing fitness (ln)” value (37 °C) is -0.807 ± 0.069.
With GGACAGCAAUAUUACGGUCA, the “self-splicing fitness (ln)” value was -0.242 ± 0.046 (30 °C) and 0.817 ± 0.07 (37 °C).
The corresponding values for ACGAAGCAAUAUUACGUUAG are -3.22 ± 0.12 and -2.44 ± 0.16.
The corresponding values for UAUAAGCAAUAUUACGAUUG are -1.48 ± 0.11 and -0.744 ± 0.13.
The corresponding values for UGUUAGCAAUAUUACGCAUG are -1.38 ± 0.084 and -0.483 ± 0.089.
As to GCGUAGCAAUAUUACGGAAG, the “self-splicing fitness (ln)” value is -3.56 ± 0.31 (30 °C) and -1.98 ± 0.33 (37 °C).
The corresponding values for AUAAAGCAAUAUUACGUCGG are -1.28 ± 0.075 and -0.774 ± 0.089.
Regarding GAAUAGCAAUAUUACGCAAA, the “self-splicing fitness (ln)” value is -3.06 ± 0.38 (30 °C) and -1.75 ± 0.27 (37 °C).
On the same counts, the results for CUUCAGCAAUAUUACGGUAC are -3.21 ± 0.35 and -2.02 ± 0.33.
The corresponding values for AUAGAGCAAUAUUACGCAUG are -1.85 ± 0.16 and -1.42 ± 0.23.
Turning to GCCAAGCAAUAUUACGAUAU, the “self-splicing fitness (ln)” value runs as follows: (30 °C) -2.75 ± 0.12; (37 °C) -2.01 ± 0.13.
UCCCAGCAAUAUUACGUACG: the “self-splicing fitness (ln)” value (30 °C) is -3.27 ± 0.2 and the “self-splicing fitness (ln)” value (37 °C) is -2.93 ± 0.3.
For CCCAAGCAAUAUUACGGCAC, the “self-splicing fitness (ln)” value was -4.31 ± 0.36 (30 °C) and -2.5 ± 0.21 (37 °C).
On the same counts, the results for UAAUAGCAAUAUUACGUAAG are -2.47 ± 0.21 and -0.977 ± 0.15.
With CGCAAGCAAUAUUACGAAGU, the “self-splicing fitness (ln)” value was -4.42 ± 0.36 (30 °C) and -0.741 ± 0.15 (37 °C).
On the same counts, the results for GACGAGCAAUAUUACGCGCC are -2.74 ± 0.19 and -1.59 ± 0.25.
On the same counts, the results for AACCAGCAAUAUUACGUGUC are -3.29 ± 0.094 and -1.42 ± 0.075.
As for AAUCAGCAAUAUUACGAGCA, the “self-splicing fitness (ln)” value runs as follows: (30 °C) -0.936 ± 0.14; (37 °C) -0.0653 ± 0.12.
Turning to GUUGAGCAAUAUUACGCCGA, the “self-splicing fitness (ln)” value (30 °C) is -2.15 ± 0.41.
As for AGGUAGCAAUAUUACGCCAU, the “self-splicing fitness (ln)” value is -1.89 ± 0.021 (30 °C) and -0.939 ± 0.036 (37 °C).
On the same counts, the results for CUUUAGCAAUAUUACGAAGG are -1.23 ± 0.11 and -1.85 ± 0.21.
Take GGCAAGCAAUAUUACGGUCC: the “self-splicing fitness (ln)” value is -2.95 ± 0.15 (30 °C) and -2.1 ± 0.17 (37 °C).
On the same counts, the results for GAACAGCAAUAUUACGUAUA are -0.835 ± 0.083 and -0.324 ± 0.1.
The corresponding values for AGAAAGCAAUAUUACGGGUU are -2.85 ± 0.15 and -1.61 ± 0.12.
AAUGAGCAAUAUUACGGAUC: the “self-splicing fitness (ln)” value reads like this: (30 °C) -2.24 ± 0.3; (37 °C) -0.974 ± 0.3.
CAGGAGCAAUAUUACGAGGU: the “self-splicing fitness (ln)” value runs as follows: (30 °C) -2.48 ± 0.2; (37 °C) -2.84 ± 0.25.
Regarding UGCCAGCAAUAUUACGGAAG, the “self-splicing fitness (ln)” value (30 °C) was -2.55 ± 0.073 and the “self-splicing fitness (ln)” value (37 °C) is -1.42 ± 0.071.
On to CUCCAGCAAUAUUACGGCUA, for which the “self-splicing fitness (ln)” value (30 °C) is -3.19 ± 0.26 and the “self-splicing fitness (ln)” value (37 °C) is -2.27 ± 0.2.
With CAGUAGCAAUAUUACGGAGC, the “self-splicing fitness (ln)” value (37 °C) was -1.75 ± 0.33.
Turning to UGUCAGCAAUAUUACGCGAG, the “self-splicing fitness (ln)” value by setting is: (30 °C) -1.31 ± 0.096; (37 °C) -0.991 ± 0.098.
The corresponding values for UUCAAGCAAUAUUACGAGUA are -0.831 ± 0.083 and -0.136 ± 0.089.
With AACUAGCAAUAUUACGGAUC, the “self-splicing fitness (ln)” value is, setting by setting: (30 °C) -1.78 ± 0.17; (37 °C) -1.37 ± 0.12.
On the same counts, the results for CCAUAGCAAUAUUACGCGUG are -2.23 ± 0.095 and -0.856 ± 0.085.
On the same counts, the results for ACGUAGCAAUAUUACGUGCC are -1.54 ± 0.22 and -0.492 ± 0.24.
Regarding UCGUAGCAAUAUUACGUACG, the “self-splicing fitness (ln)” value (30 °C) was -3.07 ± 0.24 and the “self-splicing fitness (ln)” value (37 °C) was -1.96 ± 0.19.
UUCUAGCAAUAUUACGUCCU: the “self-splicing fitness (ln)” value (30 °C) is -1.87 ± 0.38 and the “self-splicing fitness (ln)” value (37 °C) was -2.91 ± 0.36.
Consider GUAGAGCAAUAUUACGUUCC, for which the “self-splicing fitness (ln)” value is -1.77 ± 0.14 (30 °C) and -0.881 ± 0.18 (37 °C).
On the same counts, the results for CAGCAGCAAUAUUACGUCAU are -4.22 ± 0.33 and -2.77 ± 0.23.
The corresponding values for UAUCAGCAAUAUUACGAAUG are 0.00149 ± 0.052 and 0.0362 ± 0.07.
Consider UGUGAGCAAUAUUACGGUUC, for which the “self-splicing fitness (ln)” value was -2.76 ± 0.21 (30 °C) and -2.9 ± 0.24 (37 °C).
Turning to AACGAGCAAUAUUACGAUCA, the “self-splicing fitness (ln)” value was -2.1 ± 0.21 (30 °C) and -1.41 ± 0.21 (37 °C).
Regarding UGAAAGCAAUAUUACGCUCC, the “self-splicing fitness (ln)” value by setting is: (30 °C) -1.4 ± 0.12; (37 °C) -0.227 ± 0.14.
AGGCAGCAAUAUUACGCGGA: the “self-splicing fitness (ln)” value is, setting by setting: (30 °C) -2.08 ± 0.14; (37 °C) -0.664 ± 0.1.
Turning to CUAGAGCAAUAUUACGGUUU, the “self-splicing fitness (ln)” value (30 °C) is -4.03 ± 0.31.
For the sequence AAGUAGCAAUAUUACGGGGC, the “self-splicing fitness (ln)” value by setting is: (30 °C) -3.29 ± 0.3; (37 °C) -3.4 ± 0.26.
In the case of ACUGAGCAAUAUUACGAAAU, the “self-splicing fitness (ln)” value (30 °C) was -2.94 ± 0.24 and the “self-splicing fitness (ln)” value (37 °C) is -1.72 ± 0.22.
With ACACAGCAAUAUUACGAGCA, the “self-splicing fitness (ln)” value (30 °C) was -1.44 ± 0.12 and the “self-splicing fitness (ln)” value (37 °C) was -1.45 ± 0.13.
Turning to GGCGAGCAAUAUUACGUUUG, the “self-splicing fitness (ln)” value is -2.31 ± 0.21 (30 °C) and -2.78 ± 0.38 (37 °C).
As for UAGUAGCAAUAUUACGGGGU, the “self-splicing fitness (ln)” value (30 °C) was -3 ± 0.17 and the “self-splicing fitness (ln)” value (37 °C) was -2.89 ± 0.22.
